US8518399B2, “Methods of treating infections originating from viruses in the herpesviridae family” (Tamir Biotechnology, Inc., priority 2010, dated 2013)

Experiments:
roseolovirus-6A = assay: Antiviral activity against roseolovirus-6A in HSB-2 cells, viral DNA by real time PCR; type: cell-based, human; conditions: SI greater than 1 = active, FIGS. 1 and 2
Procedure: (§1) To evaluate the activity of the three tested RNases against human herpesviridae infections, the following quantitative PCR assay was used:
(§2) Solutions of the tested RNases were prepared in cell culture medium without use of dimethyl sulfoxide (“DMSO”). DMSO is unnecessary because the tested RNases are water-soluble.
Antiviral activity against roseolovirus-6B was evaluated in Molt-3 cells. The tested RNases were diluted using methods used for the CPE-inhibition assay in RPMI 1640 medium (Roswell Park Memorial Institute) supplemented with 10% FBS, L-glutamine, penicillin and gentamicin. 2×10^4 Molt-3 cells were added to each well, and infected cells were added to achieve the desired multiplicity of infection and incubated at 37° C. for 4 days. The accumulation of viral DNA was determined by real time PCR assays. Antiviral activity against roseolovirus-6A was evaluated by similar procedures, but using HSB-2 cells.
(§3) For all the assays, cytotoxicity was evaluated in the same cell line used to evaluate antiviral activity and was assessed by CellTiter-Glo assays.

human cytomegalovirus = assay: Antiviral activity against human cytomegalovirus, CPE-inhibition assay in primary HFF cells with real time PCR readout; type: cell-based; conditions: primary human foreskin fibroblast (HFF) cells; SI greater than 1 = active; FIGS. 1 and 2
Procedure: as §1, §2
Antiviral activity against herpes simplex virus-1, herpes simplex virus-2, and human cytomegalovirus was evaluated by cytopathic effect inhibition (“CPE-inhibition”) assays in primary human foreskin fibroblast (HFF) cells. Primary HFF cells were counted and 2.5×10^4 cells per well were seeded into 96-well plates in 100 it of minimal essential medium supplemented with 10% fetal bovine serum (“FBS”). The cells were then incubated for 24 hours at 37° C. in a 5% CO2 humidified incubator. Solutions of the tested RNases were added to triplicate wells to yield a final concentration of 10 μM, and diluted to yield concentrations of 2, 0.4, 0.08, 0.016, and 0.0032 μM. The plates were then incubated for 1 h and 100 μl of a virus suspension was added. […] Total DNA from the cultures was harvested and viral genome copy number was determined by real time PCR assays.
as §3

B1: ranpirnase (protein, UniProt P22069 1-104, looked up)
Protein P-30: QDWLTFQKKHITNTRDVDCDNIMSTNLFHCKDKNTFIYSRPEPVKAICKGIIASKNVLTTSEFYLSDCNVTSRPCKYKLKKSTNKFCVTCENQAPVHFVGVGSC
notes: An RNase, disclosed and claimed in U.S. Pat. No. 5,559,212
activity against roseolovirus-6A (judged by SI = CC50/EC50) (roseolovirus-6A): entirely inactive | activity against human cytomegalovirus (judged by SI = CC50/EC50) (human cytomegalovirus): extraordinarily active
